Assay results as given in patent publication US20190241662A1 (ADAGENE, published 2019).

T1: human Tim3 on HEK293F cells (human, UniProt Q8TDQ0 22-301)
T1 construct: whole, on cells
T1 sequence (looked up): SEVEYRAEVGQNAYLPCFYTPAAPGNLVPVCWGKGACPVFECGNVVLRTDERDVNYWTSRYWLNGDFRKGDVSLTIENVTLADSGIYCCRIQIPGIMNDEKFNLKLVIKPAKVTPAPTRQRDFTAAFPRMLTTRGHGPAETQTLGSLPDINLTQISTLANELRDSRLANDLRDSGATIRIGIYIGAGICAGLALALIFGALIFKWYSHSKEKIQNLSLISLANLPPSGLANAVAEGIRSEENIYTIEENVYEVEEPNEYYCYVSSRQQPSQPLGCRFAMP

T2: recombinant human CTLA4 fused with human Fc and His tag (human, UniProt P16410 36-162, limits assumed)
T2 construct: Coated in the CD80 ELISA, biotinylated and in solution in the CD86 ELISA; also called biotinylated human CTLA4 fused with human FC and His tag
T2 sequence (looked up): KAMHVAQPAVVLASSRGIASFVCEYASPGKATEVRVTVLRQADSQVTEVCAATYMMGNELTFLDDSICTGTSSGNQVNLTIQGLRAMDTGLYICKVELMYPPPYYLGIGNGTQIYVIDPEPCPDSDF

T3: full-length human CTLA4 expressed on cells (human, UniProt P16410 36-223)
T3 construct: whole, on cells; also called HEK293F/hCTLA-4 cells; HEK293F/hCTLA4 cells
T3 sequence (looked up): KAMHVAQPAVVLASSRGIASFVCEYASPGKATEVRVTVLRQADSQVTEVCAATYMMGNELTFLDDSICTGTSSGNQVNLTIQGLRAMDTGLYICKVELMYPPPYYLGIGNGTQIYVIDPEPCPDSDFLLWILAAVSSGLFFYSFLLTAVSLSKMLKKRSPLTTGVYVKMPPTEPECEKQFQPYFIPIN

T4: human CD95 on HEK293F cells (human, UniProt P25445 26-335)
T4 construct: whole, on cells
T4 sequence (looked up): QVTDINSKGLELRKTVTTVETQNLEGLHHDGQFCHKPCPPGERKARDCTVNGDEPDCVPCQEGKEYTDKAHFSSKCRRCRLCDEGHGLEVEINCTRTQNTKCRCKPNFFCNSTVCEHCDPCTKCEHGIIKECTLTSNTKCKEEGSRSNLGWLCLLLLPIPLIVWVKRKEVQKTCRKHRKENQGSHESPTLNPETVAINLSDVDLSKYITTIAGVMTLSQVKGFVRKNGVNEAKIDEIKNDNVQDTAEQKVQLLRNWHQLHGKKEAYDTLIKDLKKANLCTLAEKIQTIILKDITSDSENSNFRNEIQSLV

T5: human TNFR1 on HEK293F cells (human, UniProt P19438 30-455)
T5 construct: whole, on cells; also called CD120a
T5 sequence (looked up): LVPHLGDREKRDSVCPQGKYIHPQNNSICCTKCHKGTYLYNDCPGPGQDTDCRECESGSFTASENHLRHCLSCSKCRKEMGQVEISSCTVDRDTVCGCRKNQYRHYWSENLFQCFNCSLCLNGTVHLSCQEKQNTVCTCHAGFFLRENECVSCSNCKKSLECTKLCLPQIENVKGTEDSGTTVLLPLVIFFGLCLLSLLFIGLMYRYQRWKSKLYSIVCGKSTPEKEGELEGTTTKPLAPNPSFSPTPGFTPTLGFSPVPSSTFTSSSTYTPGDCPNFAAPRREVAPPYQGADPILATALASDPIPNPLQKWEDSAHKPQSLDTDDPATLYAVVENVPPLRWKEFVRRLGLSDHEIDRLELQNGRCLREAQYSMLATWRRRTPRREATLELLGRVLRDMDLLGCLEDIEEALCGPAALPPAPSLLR


Legend:
[1] = biological target: T1, human Tim3 on HEK293F cells; assay: flow cytometry, transfected HEK293F cells
Procedure: (§1) Antibody selectivity was next examined. Human CTLA4, PD1, LAG3, Tim3, B7H3, CD95, TNFR1, OX40, CD40, PD-L1, BLTA, VISTA, PDL2, ICOS and B7H4 were transiently overexpressed on the surface of HEK293F cells. Transfected cells were washed in pre-chilled 1×PBSA buffer (1.76 mM KH2PO4, 10.14 mM Na2HPO4.12H2O, 2.68 mM KCl, 136.89 mM NaCl and 1% BSA), then incubated with 100 nM test antibodies for 1 hour on ice. Cells were washed once with staining buffer, and Alexa Fluor® 647 conjugated mouse anti-human FC antibodies were added and incubated for 30 minutes on ice, protected from light. Samples were washed once with staining buffer prior to analysis by flow cytometry.

[2] = biological target: T2, recombinant human CTLA4 fused with …; assay: competition ELISA: plate-bound human CD86-Fc, biotinylated human CTLA4-Fc-His in solution
Procedure: Plates were blocked with PBS supplemented with 2% (w/v) skim milk at 37° C. for 1 hour. […] Plates were washed four times, and 100 μL HRP-neutravidin (1:1000) were added to each well and incubated at 37° C. for 1 hr. Plates were washed as previously described, and 50 μL TMB substrate solution was added and incubated at room temperature for 5 minutes before the reaction was stopped by 50 μL sulfate acid (2M).

[3] = biological target: T3, full-length human CTLA4 expressed on …; assay: flow cytometry, transfected HEK293F cells, 100 nM antibody [Cont.]
Procedure: as §1

[4] = biological target: T3, full-length human CTLA4 expressed on …; assay: flow cytometry, transfected HEK293F cells, antibody concentration not printed [Cont.]
Procedure: (§2) The affinities of the antibodies were also assessed against human and mouse CTLA4 transiently expressed on the surface of HEK293F cells (FIG. 2). Briefly, HEK293F cells were transfected with a plasmid expressing full-length human, monkey or mouse CTLA4 from a bicistronic IRES vector also encoding EGFP, and EGFP expression was used to identify the transfected cells. After 48 hours, the mammalian cell suspension (2×10⁵/well) was transferred to an Eppendorf tube, centrifuged, the supernatant was discarded, the cells were resuspended with 1 mL PBSA (to a density is 4×10⁶ cells/mL), and added to a 96 well plate. […] The cells were then washed once prior to analysis by flow cytometry (Beckman® CytoFlex).

[5] = biological target: T6, full-length mouse CTLA4 expressed on HEK293F cells (mouse, UniProt P09793 36-223); assay: as above
T6 construct: whole, on cells
Procedure: as §2

[6] = biological target: T4, human CD95 on HEK293F cells; assay: flow cytometry, transfected HEK293F cells
Procedure: as §1

[7] = biological target: T5, human TNFR1 on HEK293F cells; assay: flow cytometry, transfected HEK293F cells
Procedure: as §1

Row | Binder | binding result [1] | IC50 (read off the curve) [2] | % of cells in upper right quadrant (Q2) [3] | % of cells in upper right quadrant (Q2) [4] | Mean [4] | % of cells in upper right quadrant (Q2) [5] | Mean [5] | binding result [6] | binding result [7] | Mean [3]
1 | TY21691 (antibody, V domains shown, human IgG1 (hIgG1) from Fab hit B15736) VH: EVQLVESGGGLVQPGGSLRLSCAASGFTFSDYAIHWVRQAPGKGLEWIGIISPSGGSTKYAQKFQGRVTISRDNSKNTLYLQLNSLRAEDTAVYYCARLGYGYFDVWGQGTLVTVSS VL: DIQLTQSPSSLSASVGDRVTITCRASQSVDFYGISFLHWYQQKPGKAPKLLIYDASSLESGVPSRFSGSGSGTDFTLTISSLQPEDFATYYCVQALQLPLTFGQGTKVEIK | no binding (tested: 100 nM) | ~20 nM | – | – | – | – | – | – | – | –
2 | TY21687 (antibody, V domains shown, human IgG1 (hIgG1) from Fab hit B15700) VH: EVQLVESGGGLVQPGGSLRLSCAASGFTFSGYAIHWVRQAPGKGLEWIGIISPSGGGTKYAQKFQGRVTISRDNSKNTLYLQLNSLRAEDTAVYYCARHPFAYWGQGTLVTVSS VL: DIQLTQSPSSLSASVGDRVTITCRASQSVDFYGISFLDWYQQKPGKAPKLLIYDASNRATGIPSRFSGSGSGTDFTLTISSLQPEDFATYYCQQYVSSPPEYTFGQGTKVEIK | – | ~10 nM | 75.7% | 50.4 | 433000 | 33.4 | 633000 | – | – | –
3 | TY21585 (antibody, V domains shown, human IgG1 (hIgG1) from Fab hit B15709) VH: EVQLVESGGGLVQPGGSLRLSCAASGFTFSDYAIHWVRQAPGKGLEWIGIISPSSGSTNYAQKFQGRVTISRDNSKNTLYLQLNSLRAEDTAVYYCARDIHSGSSGYYYGFDVWGQGTLVTVSS VL: DIQLTQSPSSLSASVGDRVTITCRASESVDFFGISFLAWYQQKPGKAPKLLIYDASNRATGIPSRFSGSGSGTDFTLTISSLQPEDFATYYCQHYTSSPPVYTFGQGTKVEIK | – | – | 36.3 | – | – | – | – | no binding (tested: 100 nM) | no binding (tested: 100 nM) | 6190
